From US20110177070A1 (EMERGENT PRODUCT DEVELOPMENT SEATLLE, published 2011)

T1: recombinant human sIL-6R (human, UniProt P08887 20-358, limits assumed)
T1 construct: Bought soluble receptor; also called human soluble IL6R; IL6R alone
T1 sequence (looked up): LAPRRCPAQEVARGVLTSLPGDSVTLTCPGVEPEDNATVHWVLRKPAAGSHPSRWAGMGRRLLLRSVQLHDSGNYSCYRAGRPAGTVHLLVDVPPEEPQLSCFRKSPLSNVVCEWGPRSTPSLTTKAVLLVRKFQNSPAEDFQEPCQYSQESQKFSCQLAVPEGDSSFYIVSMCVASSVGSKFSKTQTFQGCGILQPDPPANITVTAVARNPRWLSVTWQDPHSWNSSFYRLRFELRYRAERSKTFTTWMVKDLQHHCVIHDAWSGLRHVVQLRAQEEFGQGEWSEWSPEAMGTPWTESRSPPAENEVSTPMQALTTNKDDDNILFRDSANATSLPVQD


Columns and labels:
[1] = target: T1, recombinant human sIL-6R; assay: sandwich ELISA: Xceptor captured on anti-human IgG-Fc, sIL-6R, anti-human IL-6R-biotin
Description: Added to each well of a 96-well plate was 100 μl goat anti-human IgG-Fc (ICN Pharmaceuticals, Costa Mesa, Calif.) from a 2 μg/ml solution in PBS, pH 7.2-7.4, The plates were covered, and incubated overnight at 4° C. After washing four times with PBS-T, 250 μl Blocking buffer (PBS-T with 3% BSA or 10% normal goat serum) was added to each well, the plate was covered, and incubated at room temperature for 2 hours (or at 4° C. overnight). After washing the plate three times with PBS-T, added in duplicate wells to the anti-human IgG-Fc coated plate was 100 μl/well Xceptor TNFRSF1B::anti-HIL6 samples, positive control anti-human IL-6R(R&D Systems, Minneapolis, Minn.) and negative controls human IgG or human gp130-Fc chimera (R&D Systems), each serially diluted three-fold in Working buffer starting at 300 ng/ml, the plate was covered, and incubated at room temperature for about 1 to 2 hours. After washing the plate five times with PBS-T, added in duplicate wells was 100 μl/well recombinant human sIL-6R(R&D Systems) from a 75 pM solution in Working buffer, the plate was covered, and incubated at room temperature for about 1 to 2 hours. After washing the plate five times with PBS-T, added 100 μl/well anti-human IL-6R-biotin (R&D Systems) from a 100 ng/ml solution in Working buffer, the plate was covered, and incubated at room temperature for about 1 to 2 hours. After washing the plate five times with PBS-T, 100 μl per well horse radish peroxidase-conjugated streptavidin (Zymed, San Francisco, Calif.) diluted 1:4,000 in Working buffer was added, the plate was covered, and incubated at room temperature for 30 minutes. After washing the plate six times with PBS-T, 100 μl per well 3,3,5,5-tetramentylbenzidine (TMB) substrate solution (Pierce, Rockford, Ill.) was added for about 3 to 5 minutes and then the reaction was stopped with 50 μl Stop buffer (1N H₂SO₄) per well. The absorbance of each well was read at 450 nm.

[2] = target: T2, recombinant human TNF-α (human, UniProt P01375 77-233); assay: sandwich ELISA: Xceptor captured on anti-human IgG-Fc, 2 ng/ml TNF-α, anti-human TNF-α-biotin
T2 construct: also called rhTNF-α
T2 sequence (P01375 77-233 limits assumed): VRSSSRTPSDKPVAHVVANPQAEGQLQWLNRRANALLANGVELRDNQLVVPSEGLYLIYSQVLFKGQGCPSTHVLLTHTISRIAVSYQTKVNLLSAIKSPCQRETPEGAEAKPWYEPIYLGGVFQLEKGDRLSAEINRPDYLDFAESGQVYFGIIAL
Description: Added to each well of a 96-well plate was 100 μl goat anti-human IgG-Fc (ICN Pharmaceuticals, Costa Mesa, Calif.) from a 2 μg/ml solution in PBS, pH 7.2-7.4. The plate was covered, and incubated overnight at 4° C. After washing four times with PBS-T, 250 μl Blocking buffer was added to each well, the plate was covered, and incubated at room temperature for 2 hours (or at 4° C. overnight). After washing the plate three times with PBS-T, added in duplicate wells to the anti-human IgG-Fc coated plate was 100 μl/well Xceptor TNFRSF1B::anti-HIL6 samples, positive controls Enbrel® (etanercept) and recombinant human TNFR2 (TNFRSF1B)-Fc chimera (R&D Systems, Minneapolis, Minn.), and negative controls human IgG or human gp130-Fc chimera (R&D Systems), each serially diluted three-fold in Working buffer starting at 300 ng/ml, the plate was covered, and incubated at room temperature for about 1 to 2 hours. After washing the plate five times with PBS-T, added in duplicate wells was 100 μl/well recombinant human TNF-α (R&D Systems) from a 2 ng/ml solution in Working buffer, the plate was covered, and incubated at room temperature for about 1 to 2 hours. After washing the plate five times with PBS-T, added 100 μl/well anti-human TNF-α-biotin (R&D Systems) from a 200 ng/ml solution in Working buffer, the plate was covered, and incubated at room temperature for about 1 to 2 hours. After washing the plate five times with PBS-T, 100 μl per well horse radish peroxidase-conjugated streptavidin (Jackson ImmunoResearch, West Grove, Pa.) diluted 1:1,000 in Working buffer was added, the plate was covered, and incubated at room temperature for 30 minutes. After washing the plate six times with PBS-T, 100 μl per well 3,3,5,5-tetramentylbenzidine (TMB) substrate solution (Pierce, Rockford, Ill.) was added for about 3 to 5 minutes and then the reaction was stopped with 50 μl Stop buffer (1N H₂SO₄) per well. The absorbance of each well was read at 450 nm.

| Binder | binding result [2] | binding result [1] |
| --- | --- | --- |
| Xceptor fusion protein TRU(XT6)-1058 (Fc fusion) LPAQVAFTPYAPEPGSTCRLREYYDQTAQMCCSKCSPGQHAKVFCTKTSDTVCDSCEDSTYTQLWNWVPECLSCGSRCSSDQVETQACTREQNRICTCRPGWYCALSKQEGCRLCAPLRKCRPGFGVARPGTETSDVVCKPCAPGTFSNTTSSTDICRPHQICNVVAIPGNASMDAVCTSTSPTRSMAPGAVHLPQPVSTRSQHTQPTPEPSTAPSTSFLLPMGPSPPAEGSTGDTGEPKSSDKTHTCPPCPAPEAAGAPSVFLFPPKPKDTLMISRTPEVTCVVVDVSHEDPEVKFNWYVDGVEVHNAKTKPREEQYNSTYRVVSVLTVLHQDWLNGKAYACAVSNKALPAPIEKTISKAKGQPREPQVYTLPPSRDELTKNQVSLTCLVKGFYPSDIAVEWESNGQPENNYKTTPPVLDSDGSFFLYSKLTVDKSRWQQGNVFSCSVMHEALHNHYTQKSLSLSPGQRHNNSSLNTRTQKARHSPNSEVQLLESGGGLVQPGGSLRLSCAASGFTFSMYTMHWVRQAPGKGLEWVSWISPSGGWTKYADSVKGRFTISRDNSKNTLYLQMNSLRAEDTAVYYCAVSPWGGPFDYWGQGTLVTVSSGGGGSGGGGSGGGGSQDIQMTQSPSTLSASVGDRVTITCRASQSISSWLAWYQQKPGKAPKLLIYKASTLESGVPSRFSAGGSGTEFTLTISSLQPDDFGTYYCQQYNSYSLTFGGGTKVEII | binds | no binding (tested: Xceptor from 300 ng/ml; sIL-6R 75 pM) |
| Xceptor fusion protein TRU(XT6)-1002 (Fc fusion, also called Xceptor TNFRSF1B::anti-HIL6) LPAQVAFTPYAPEPGSTCRLREYYDQTAQMCCSKCSPGQHAKVFCTKTSDTVCDSCEDSTYTQLWNWVPECLSCGSRCSSDQVETQACTREQNRICTCRPGWYCALSKQEGCRLCAPLRKCRPGFGVARPGTETSDVVCKPCAPGTFSNTTSSTDICRPHQICNVVAIPGNASMDAVCTSTSPTRSMAPGAVHLPQPVSTRSQHTQPTPEPSTAPSTSFLLPMGPSPPAEGSTGDTGEPKSSDKTHTCPPCPAPEAAGAPSVFLFPPKPKDTLMISRTPEVTCVVVDVSHEDPEVKFNWYVDGVEVHNAKTKPREEQYNSTYRVVSVLTVLHQDWLNGKAYACAVSNKALPAPIEKTISKAKGQPREPQVYTLPPSRDELTKNQVSLTCLVKGFYPSDIAVEWESNGQPENNYKTTPPVLDSDGSFFLYSKLTVDKSRWQQGNVFSCSVMHEALHNHYTQKSLSLSPGQRHNNSSLNTRTQKARHSPNSEVQLLESGGGLVQPGGSLRLSCAASGFTFSFYQMHWVRQAPGKGLEWVSGIYPSGGYTKYADSVKGRFTISRDNSKNTLYLQMNSLRAEDTAVYYCARDLGYGSSWYYFDYWGQGTLVTVSSGGGGSGGGGSGGGGSQSALTQPASVSGSPGQSITISCSGTDSDVGGYNHVSWYQQHPGKAPKLIIYDVDHRPSGISNRFSGSKSGNTASLTISGLQAEDEADYYCSSYRSGSTYVFGTGTKVTVL | binds | no binding (tested: Xceptor from 300 ng/ml; sIL-6R 75 pM) |

Second part, led by results:

| binding result [2] | Binder | binding result [1] |
| --- | --- | --- |
| binds | Xceptor fusion protein TRU(X6T)-1019 (Fc fusion) EVQLLESGGGLVQPGGSLRLSCAASGFTFSWYLMHWVRQAPGKGLEWVSGIWPSGGHTLYADSVKGRFTISRDNSKNTLYLQMNSLRAEDTAVYYCAREPLLWFGELSYNWFDPWGQGTLVTVSSGGGGSGGGGSGGGGSQDIQMTQSPSSVSASVGDRVTITCRASQGISSWLAWYQQKPGKAPKLLIYAASSLQSGVPSRFSGSGSGTDFTLTISSLQPEDFATYYCQQANSFPLTFGGGTKVEIKTGEPKSSDKTHTCPPCPAPEAAGAPSVFLFPPKPKDTLMISRTPEVTCVVVDVSHEDPEVKFNWYVDGVEVHNAKTKPREEQYNSTYRVVSVLTVLHQDWLNGKAYACAVSNKALPAPIEKTISKAKGQPREPQVYTLPPSRDELTKNQVSLTCLVKGFYPSDIAVEWESNGQPENNYKTTPPVLDSDGSFFLYSKLTVDKSRWQQGNVFSCSVMHEALHNHYTQKSLSLSPGQRHNNSSLNTRTQKARHSPNSLPAQVAFTPYAPEPGSTCRLREYYDQTAQMCCSKCSPGQHAKVFCTKTSDTVCDSCEDSTYTQLWNWVPECLSCGSRCSSDQVETQACTREQNRICTCRPGWYCALSKQEGCRLCAPLRKCRPGFGVARPGTETSDVVCKPCAPGTFSNTTSSTDICRPHQICNVVAIPGNASMDAVCTSTSPTRSMAPGAVHLPQPVSTRSQHTQPTPEPSTAPSTSFLLPMGPSPPAEGSTGD | no binding (tested: Xceptor from 300 ng/ml; sIL-6R 75 pM) |
| binds | Xceptor fusion protein TRU(XT6)-1019 (Fc fusion, also called Xceptor TNFRSF1B::anti-HIL6) LPAQVAFTPYAPEPGSTCRLREYYDQTAQMCCSKCSPGQHAKVFCTKTSDTVCDSCEDSTYTQLWNWVPECLSCGSRCSSDQVETQACTREQNRICTCRPGWYCALSKQEGCRLCAPLRKCRPGFGVARPGTETSDVVCKPCAPGTFSNTTSSTDICRPHQICNVVAIPGNASMDAVCTSTSPTRSMAPGAVHLPQPVSTRSQHTQPTPEPSTAPSTSFLLPMGPSPPAEGSTGDTGEPKSSDKTHTCPPCPAPEAAGAPSVFLFPPKPKDTLMISRTPEVTCVVVDVSHEDPEVKFNWYVDGVEVHNAKTKPREEQYNSTYRVVSVLTVLHQDWLNGKAYACAVSNKALPAPIEKTISKAKGQPREPQVYTLPPSRDELTKNQVSLTCLVKGFYPSDIAVEWESNGQPENNYKTTPPVLDSDGSFFLYSKLTVDKSRWQQGNVFSCSVMHEALHNHYTQKSLSLSPGQRHNNSSLNTRTQKARHSPNSEVQLLESGGGLVQPGGSLRLSCAASGFTFSWYLMHWVRQAPGKGLEWVSGIWPSGGHTLYADSVKGRFTISRDNSKNTLYLQMNSLRAEDTAVYYCAREPLLWFGELSYNWFDPWGQGTLVTVSSGGGGSGGGGSGGGGSQDIQMTQSPSSVSASVGDRVTITCRASQGISSWLAWYQQKPGKAPKLLIYAASSLQSGVPSRFSGSGSGTDFTLTISSLQPEDFATYYCQQANSFPLTFGGGTKVEIK | no binding (tested: Xceptor from 300 ng/ml; sIL-6R 75 pM) |
